Sequences and labels used below:
B1: Hammerhead Ribozyme (parent)
chain: ACCGGAUGUGCUUUCCGGUCUGAUGAGUCCGUGAGGACGAAACAG

The variants in the data set derive from B1. Kind of data set: self-cleavage, relative activity (ratio to wild type); higher = more cleavage; co-transcriptional.
Consider ACCGCAUGUGCUUUCCGGUCUGAUGAGACCGUGAGGACGAAACAG [G5C U28A], for which the self-cleavage was 0.376.

For ACCGCAUGUGCUUUCCGGUCUGAUGAGCCCGUGAGGACGAAACAG [G5C U28C], the self-cleavage was 0.33. ACCGUAUGUGCUUUCCGGUCUGAUGAGUCCGUGAGGACGAAGCAG [G5U A42G]: the self-cleavage stood at 0.352. As to ACCGUAUGUGCUUUCCGGUCUGAUGAGUCCGUGAGGACGAACCAG [G5U A42C], the self-cleavage amounted to 0.327.

Regarding ACCGUAUGUGCUUUCCGGUCUGAUGAGUCCGUGAGGACGAAUCAG [G5U A42U], the self-cleavage amounted to 0.323. For ACCGUAUGUGCUUUCCGGUCUGAUGAGUCCGUGAGGAGGAAACAG [G5U C38G] the value was 0.349; for ACCGUAUGUGCUUUCCGGUCUGAUGAGUCCGUGAGGAUGAAACAG [G5U C38U], 0.498. For ACCGUAUGUGCUUUCCGGUCUGAUGAGUCCGUGAGGAAGAAACAG [G5U C38A], the self-cleavage is 0.431. The value for ACCGUAUGUGCUUUCCGGUCUGUUGAGUCCGUGAGGACGAAACAG [G5U A23U] was 0.356.

Turning to ACCGUAUGUGCUUUCCGGUCUGGUGAGUCCGUGAGGACGAAACAG [G5U A23G], the self-cleavage came to 0.287.

In the case of ACCGUAUGUGCUUUCCGGUCUGCUGAGUCCGUGAGGACGAAACAG [G5U A23C], the self-cleavage is 0.339. For ACCGCAUGUGCUUUCCGGUCUGAUGAGUCCGUGAGUACGAAACAG [G5C G36U] the value was 0.33; for ACCGCAUGUGCUUUCCGGUCUGAUGAGUCCGUGAGCACGAAACAG [G5C G36C], 0.357; for ACCGCAUGUGCUUUCCGGUCUGAUGAGUCCGUGAGAACGAAACAG [G5C G36A], 0.35. For ACCGCAUGUGCAUUCCGGUCUGAUGAGUCCGUGAGGACGAAACAG [G5C U12A] the value was 0.788; for ACCGCAUGUGCCUUCCGGUCUGAUGAGUCCGUGAGGACGAAACAG [G5C U12C], 0.703; for ACCGCAUGUGCGUUCCGGUCUGAUGAGUCCGUGAGGACGAAACAG [G5C U12G], 0.773. For ACCGCAUGCGCUUUCCGGUCUGAUGAGUCCGUGAGGACGAAACAG [G5C U9C] the value was 0.63; for ACCGCAUGAGCUUUCCGGUCUGAUGAGUCCGUGAGGACGAAACAG [G5C U9A], 0.595. As for ACCGCAUGGGCUUUCCGGUCUGAUGAGUCCGUGAGGACGAAACAG [G5C U9G], the self-cleavage is 0.467. In the case of ACCGUAUGUGCUUUCCGGUCUCAUGAGUCCGUGAGGACGAAACAG [G5U G22C], the self-cleavage was 0.251. For ACCGUAUGUGCUUUCCGGUCUAAUGAGUCCGUGAGGACGAAACAG [G5U G22A] the value was 0.269; for ACCGUAUGUGCUUUCCGGUCUUAUGAGUCCGUGAGGACGAAACAG [G5U G22U], 0.304; for ACCGUAUGUGCUUUCCGGUCUGAUGAGUCGGUGAGGACGAAACAG [G5U C30G], 0.445. As to ACCGUAUGUGCUUUCCGGUCUGAUGAGUCAGUGAGGACGAAACAG [G5U C30A], the self-cleavage amounted to 0.795. Take ACCGUAUGUGCUUUCCGGUCUGAUGAGUCUGUGAGGACGAAACAG [G5U C30U]: the self-cleavage turned out to be 0.967. The value for ACCGCAUGUGCUUUCCGGUCUGAUGAGUCCGUGAGGACGAAACAA [G5C G45A] was 0.384. The value for ACCGCAUGUGCUUUCCGGUCUGAUGAGUCCGUGAGGACGAAACAU [G5C G45U] was 0.382. For ACCGCAUGUGCUUUCCGGUCUGAUGAGUCCGUGAGGACGAAACAC [G5C G45C] the value was 0.397; for ACCGUAUGUGCUUUCCGGUCUGAUGAGUCCGUGAGGACGGAACAG [G5U A40G], 0.35; for ACCGUAUGUGCUUUCCGGUCUGAUGAGUCCGUGAGGACGCAACAG [G5U A40C], 0.375. For ACCGUAUGUGCUUUCCGGUCUGAUGAGUCCGUGAGGACGUAACAG [G5U A40U], the self-cleavage worked out at 0.319. For ACCGCAUGUGCUUUCCGGUCUGACGAGUCCGUGAGGACGAAACAG [G5C U24C] the value was 0.625; for ACCGCAUGUGCUUUCCGGUCUGAGGAGUCCGUGAGGACGAAACAG [G5C U24G], 0.499; for ACCGCAUGUGCUUUCCGGUCUGAAGAGUCCGUGAGGACGAAACAG [G5C U24A], 0.648. In the case of ACCGUAUGUGCUUUCCGGUCUGAUGAGUCCGUGAGGACGAAAGAG [G5U C43G], the self-cleavage was determined as 0.335. As for ACCGUAUGUGCUUUCCGGUCUGAUGAGUCCGUGAGGACGAAAAAG [G5U C43A], the self-cleavage stood at 0.352. The value for ACCGUAUGUGCUUUCCGGUCUGAUGAGUCCGUGAGGACGAAAUAG [G5U C43U] was 0.371; that for ACCGUAUGUGCUUUCCGGUCUGAUGAGUCCGUGAGGACGAGACAG [G5U A41G] was 0.316. For ACCGUAUGUGCUUUCCGGUCUGAUGAGUCCGUGAGGACGACACAG [G5U A41C] the value was 0.402.

ACCGUAUGUGCUUUCCGGUCUGAUGAGUCCGUGAGGACGAUACAG [G5U A41U]: the self-cleavage worked out at 0.332.

As to ACCGUAUGUGCUUUCCGGUCUGAUGAGUCCGUGAGGUCGAAACAG [G5U A37U], the self-cleavage stood at 0.417.

Take ACCGUAUGUGCUUUCCGGUCUGAUGAGUCCGUGAGGGCGAAACAG [G5U A37G]: the self-cleavage amounted to 0.46. For the variant ACCGUAUGUGCUUUCCGGUCUGAUGAGUCCGUGAGGCCGAAACAG [G5U A37C], the self-cleavage is 0.403. As to ACCGCAUGUGCUUCCCGGUCUGAUGAGUCCGUGAGGACGAAACAG [G5C U14C], the self-cleavage amounted to 0.429. Turning to ACCGCAUGUGCUUGCCGGUCUGAUGAGUCCGUGAGGACGAAACAG [G5C U14G], the self-cleavage was 0.929. In the case of ACCGCAUGUGCUUACCGGUCUGAUGAGUCCGUGAGGACGAAACAG [G5C U14A], the self-cleavage turned out to be 0.845. For ACCGUAUGUGCUUUCCGGUCUGAUGAGUCCGUGAGGACGAAACAG [G5U] the value was 0.934; for ACCGUAUGUUCUUUCCGGUCUGAUGAGUCCGUGAGGACGAAACAG [G5U G10U], 1.15. As for ACCGUAUGUACUUUCCGGUCUGAUGAGUCCGUGAGGACGAAACAG [G5U G10A], the self-cleavage turned out to be 1.29. The value for ACCGUAUGUCCUUUCCGGUCUGAUGAGUCCGUGAGGACGAAACAG [G5U G10C] was 0.708; that for ACCGUAUGUGCUUUCCGAUCUGAUGAGUCCGUGAGGACGAAACAG [G5U G18A] was 0.334; that for ACCGUAUGUGCUUUCCGUUCUGAUGAGUCCGUGAGGACGAAACAG [G5U G18U] was 0.343.

In the case of ACCGUAUGUGCUUUCCGCUCUGAUGAGUCCGUGAGGACGAAACAG [G5U G18C], the self-cleavage turned out to be 0.33.

In the case of ACCGUAUGUGCUUUGCGGUCUGAUGAGUCCGUGAGGACGAAACAG [G5U C15G], the self-cleavage was found to be 1.15.

In the case of ACCGUAUGUGCUUUUCGGUCUGAUGAGUCCGUGAGGACGAAACAG [G5U C15U], the self-cleavage worked out at 1.17. The value for ACCGUAUGUGCUUUACGGUCUGAUGAGUCCGUGAGGACGAAACAG [G5U C15A] was 1.43.

The values above are taken from the RNAGym collection of RNA variant scans (doi:10.7554/elife.80360).
